Measurements reported in US20240124572A1 (Bayer, published 2024).

T1: murine IL-11 (Invigate, e.g., lot #C210819-09) (mouse, UniProt P47873 22-199)
T1 construct: Biotinylated and captured on streptavidin plates in the Di-complex ELISA; unmodified analyte in SPR; also called mIL11; mIL-11
T1 sequence: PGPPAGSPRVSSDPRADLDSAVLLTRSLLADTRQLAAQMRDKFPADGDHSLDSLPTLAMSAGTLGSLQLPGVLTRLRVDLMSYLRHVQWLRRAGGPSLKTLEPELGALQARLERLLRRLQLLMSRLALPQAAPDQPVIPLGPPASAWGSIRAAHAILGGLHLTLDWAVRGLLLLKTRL

T2: murine IL-11 (mouse, UniProt P47873 22-199)
T2 construct: bought from Invigate; also called mIL-11; mIL11
T2 sequence: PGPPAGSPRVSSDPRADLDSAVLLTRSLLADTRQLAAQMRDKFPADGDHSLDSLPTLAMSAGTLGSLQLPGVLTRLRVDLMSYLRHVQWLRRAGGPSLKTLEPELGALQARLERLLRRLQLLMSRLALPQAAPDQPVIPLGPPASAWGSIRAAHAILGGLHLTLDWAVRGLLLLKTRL


Experiments:
[1] = biological target: human IL-11 (Invigate, e.g., lot #C121021-19) (human) (UniProt P20809); experiment: Tri-complex ELISA (hIL-11, mIL-11Ra-Fc, hgp130-Fc)
[2] = biological target: murine IL-11 (Invigate, e.g., lot #C210819-09) (mouse) (UniProt P47873); experiment: SPR, antibody captured, single IL-11 concentration 200 nM
[3] = biological target: human IL-11 (Invigate, e.g., lot #C121021-19) (human) (UniProt P20809); experiment: as above
[4] = biological target: murine IL-11 (Invigate, e.g., lot #C210819-09) (mouse) (UniProt P47873); experiment: Tri-complex ELISA (mIL-11, mIL-11Ra-Fc, mgp130-Fc)
[5] = biological target: human IL-11 (Invigate, e.g., lot #C121021-19) (human) (UniProt P20809); experiment: Di-complex ELISA (hIL-11 coated, canine IL11RA-hFc)
[6] = biological target: murine IL-11 (Invigate, e.g., lot #C210819-09) (mouse) (UniProt P47873); experiment: cell-based or functional assay
[7] = biological target: human IL-11 (Invigate, e.g., lot #C121021-19) (human) (UniProt P20809); experiment: cell-based or functional assay
[8] = biological target: murine IL-11 (Invigate, e.g., lot #C210819-09) (mouse) (UniProt P47873); experiment: Di-complex ELISA (mIL-11 coated, canine IL11RA-hFc)
human IL-11 (human) [9] = biological target: human IL-11 (human) (UniProt P20809); experiment: cell-based or functional assay
[10] = biological target: cynomolgus IL-11 (cynomolgus) (UniProt P20808); experiment: cell-based or functional assay
[11] = biological target: T1, murine IL-11 (Invigate, e.g., lot …); experiment: Tri-complex ELISA (mIL-11, mIL-11Ra-Fc, mgp130-Fc)
human IL-11 (human) [12] = biological target: human IL-11 (human) (UniProt P20809); experiment: Di-complex ELISA, competitor canine IL11RA-hFc, IL-11 immobilised
murine IL-11 = biological target: T2, murine IL-11; experiment: SPR, antibody captured, IL-11 analyte
Method: Antibodies were captured via anti-mouse Fc IgGs (“Mouse antibody capture kit, Order No. BR100383, Cytiva) covalently amine coupled to a Series S CMS sensor chip (Cytiva). The amine coupling was carried out according to the manufacturer's instructions using 1-ethyl-3-(3-dimethylaminopropyl) carbodiimide hydrochloride (EDC), N-hydroxysuccinimide ([…]) and ethanolamine HCl, pH 8.5 (“Amine Coupling Kit” BR-1000-50, Cytiva). Human IL-11 (Invigate, e.g., lot #C121021-19), and murine IL-11 (Invigate, e.g., lot #C210819-09) were used as analytes. […] Based on that experiment an IL-11 concentration range was chosen to optimally determine kinetics and affinity of anti-IL-11 antibodies in multicycle kinetics mode. The sensor surface was regenerated with glycine pH 1.7 after each antigen injection. Obtained sensorgrams were double referenced (subtraction of reference flow cell signal and buffer injection) and were fitted to a 1:1 Langmuir binding model to derive kinetic data using the Biacore T200 Evaluation software or the Biacore Insight software.
42 hits from the IL-11 and IL-2Ra screening analysis were selected, expressed by transient transfection of mammalian cells and purified as described in Example 15. Antibodies were then tested for human IL-11 and murine IL-11 binding by SPR as described in Example 16.

Molecule | Efficacy (%) [1] | IC50 [1] | Kd [2] | Kd [3] | Efficacy (%) [4] | IC50 [4] | Efficacy (%) [5] | IC50 [5] | Efficacy (%)*, RGA [6] | Efficacy (%)*, RGA [7] | Efficacy (%) [8] | IC50 [8] | other results
LS-C104441 (LS-bio) (antibody) | 65.6% | 20 nM | 2.2 nM | 3.9 nM | 98.4% | 3.8 nM | 71.5% | 5.3 nM | 88% | 42.6% | 91.2% | 3.5 nM | IC50 [M], RGA [6]: 3.9e-09 M
GTX52814 (Genetex, clone 9T27) (antibody) | 36.9% | 14 nM | 2 nM | 3.3 nM | 106% | 17 nM | 74.9% | 1.9 nM | 75.5% | 5.1% | 89.9% | 4.7 nM | –
MA5-23711 (Thermo Fisher Scientific, clone 22616) (antibody) | 34.1% | 19 nM | 2 nM | 3.6 nM | 62.3% | – | 51.1% | 60 nM | 47.6% | 19.9% | 70.5% | 29 nM | –
TPP-18087 (antibody, mouse IgG1, V domains shown, mIgG1, Lambda) VH: EVQLLESGGGLVQPGGSLRLSCAASGFTFSHYDMNWLRQAPGKGLEWVGVISYDGSNKFYADFVKGRFTISRDNSKNTLYLQMNSLRAEDTAVYYCARTPGSHFDYWGQGTLVTVSS VL: QSVLTQPPSASGTPGQRVTISCSGSSSNIGNNAVNWYQQLPGTAPKLLIYYDDLLPSGVPDRFSGSKSGTSASLAISGLRSEDEADYYCSAWDDSLNGVVFGGGTKLTVLG | – | – | – | – | – | – | – | – | – | – | – | – | Efficacy (%) (RGA) (human IL-11 (human) [9]): 47.8%; Efficacy (%) (RGA) [10]: 47.7%; Efficacy (%) [11]: 25%; Efficacy (%) (human IL-11 (human) [12]): 0%
TPP-26333 (antibody, IgG1, V domains shown) VH: EVQLLESGGGLVQPGGSLRLSCAASGFTFSSYGFHWVRQAPGKGLEWVSVISYDGSYKYYADSVKGRFTISRDNSKNTLYLQMNSLRAEDTAVYYCAAGVPDYWGQGTLVTVSS VL: QSVLTQPPSASGTPGQRVTISCTGSSSNIGAGYDVHWYQQLPGTAPKLLIYSNNERPSGVPDRFSGSKSGTSASLAISGLRSEDEADYYCAAWDDSLNGPVFGGGTKLTVL | – | – | – | – | – | – | – | – | – | – | – | – | binding result (murine IL-11): no binding

More lines, main results first:

Efficacy (%) [1] | IC50 [1] | Kd [2] | Kd [3] | Efficacy (%) [4] | IC50 [4] | Efficacy (%) [5] | IC50 [5] | Efficacy (%)*, RGA [6] | Efficacy (%)*, RGA [7] | Efficacy (%) [8] | IC50 [8] | Molecule | other results
78.5% | 10 nM | 6.2 nM | 6.3 nM | 90.3% | 6.6 nM | 90.1% | 10 nM | 88.3% | 52.7% | 96.2% | 6.5 nM | LS-C193526 (LS-bio, clone KT8) (antibody) | IC50 [M], RGA [6]: 5.6e-09 M; IC50 [M], RGA [7]: 5e-08 M
4.7% | – | – | – | 4.3% | – | 8.1% | – | 17.2% | 4.9% | 3.1% | – | MA5-30696 (Thermo Fisher Scientific, clone 12) (antibody) | –
0% | – | – | – | 1.5% | – | 0% | – | 15.6% | 23.9% | 0% | – | MA5-30695 (Thermo Fisher Scientific, clone 9) (antibody) | –
81.1% | 15 nM | – | – | 81.1% | 8 nM | – | – | – | – | – | – | TPP-14250 (R&D Systems, #MAB218) (antibody) | Efficacy (%), Stat3 reporter gene assay [6]: 69.1%; IC50 [M], Stat3 reporter gene assay [6]: 1.4e-07 M; Efficacy (%), Stat3 reporter gene assay [7]: 27.1%; IC50 [M], Stat3 reporter gene assay [7]: 2.4e-10 M
1.1% | – | – | – | 0% | – | 10.3% | – | 0% | 21.3% | 11.7% | – | GTX34009 (Genetex, clone 6D9A1) (antibody) | –
